substrate: OC[C@H]1O[C@@](CO)(O[C@H]2O[C@H](CO)[C@@H](O)[C@H](O)[C@H]2O)[C@@H](O)[C@@H]1O; assay: DNS reducing sugar assay, Michaelis-Menten fit; assay type: biochemical, Rhodotorula dairenensis; conditions: 50 mM sodium phosphate pH 5.5, 60 °C, sucrose 1-200 mM
Description: DNS reducing sugar assay, Michaelis-Menten fit on RdINV

Row | Protein | Km [mM] | kcat [s⁻¹] | kcat/Km [M⁻¹ s⁻¹]
1 | RdINV (Rhodotorula dairenensis; A213W/Q216L) (protein, full-length RdINV, 675 residues, S. cerevisiae MFalpha secretion signal in pIB4, secreted by Komagataella phaffii; highly N- and O-glycosylated, ~170 kDa; homodimer) APAASSLAGPVTTGVFSAVSAIPSFATNLSGQVASATSTVLSGSTASGSSATAAPSASASGASSMQSMASSLSGSAFSPSSMMPIASGNMTMPNMTSSASASSAASTATGVAGGAGSNSSSSCAPTSLPASATELPTTVPTGTVITGDYTGSYRPQVHYSPPKGFMNDPNGCHRDRNGTYHLYYQYNPLEYVWGNLHWGHATSDDLYHWTNQPIAIFPPNSTSQVFSGSAVLDPNNTSGFFPNTTDGVVAVYTLNTPTLQVQEVAYSTDGGYNFTPYENNPVLSVGSNQFRDPKVFWYEDHWVMAVAAANDFTIEIYTSPNLTSWTFASNFTHHGLLGLAYECPNLVQVPFQDDPSKSAWLMYISINPGAPLGGSVGQYFPGDFNGTHFVAYDSAARIADFAKDNYASQWFADTENGESISIAWASNWQYTQQVPTSAQAFRSAMSLPRRNYLTNITRLGWDLVSLPYDLSPVVGPSLLSSSEANSTADVDFTNVTSNAVWFSLNVTLPDAAIQNASLISADASINITFLPSTKCSSSSGSGSDSPAATLTYFYAGLTNGALALTRPAASSSWGAENPFFTDKFSYTLVDPLTSLVGVFDRSMLEVFVNEGAHSATMLVFPDSPVGSMKVATGGLPEGTQVNLQVNGLESTWQSS | 88 ± 9 | 10500 ± 329 | 120000 ± 4000
2 | RdINV (Rhodotorula dairenensis) (protein, full-length RdINV, 675 residues, S. cerevisiae MFalpha secretion signal in pIB4, secreted by Komagataella phaffii; highly N- and O-glycosylated, ~170 kDa; homodimer) APAASSLAGPVTTGVFSAVSAIPSFATNLSGQVASATSTVLSGSTASGSSATAAPSASASGASSMQSMASSLSGSAFSPSSMMPIASGNMTMPNMTSSASASSAASTATGVAGGAGSNSSSSCAPTSLPASATELPTTVPTGTVITGDYTGSYRPQVHYSPPKGFMNDPNGCHRDRNGTYHLYYQYNPLEYVAGNQHWGHATSDDLYHWTNQPIAIFPPNSTSQVFSGSAVLDPNNTSGFFPNTTDGVVAVYTLNTPTLQVQEVAYSTDGGYNFTPYENNPVLSVGSNQFRDPKVFWYEDHWVMAVAAANDFTIEIYTSPNLTSWTFASNFTHHGLLGLAYECPNLVQVPFQDDPSKSAWLMYISINPGAPLGGSVGQYFPGDFNGTHFVAYDSAARIADFAKDNYASQWFADTENGESISIAWASNWQYTQQVPTSAQAFRSAMSLPRRNYLTNITRLGWDLVSLPYDLSPVVGPSLLSSSEANSTADVDFTNVTSNAVWFSLNVTLPDAAIQNASLISADASINITFLPSTKCSSSSGSGSDSPAATLTYFYAGLTNGALALTRPAASSSWGAENPFFTDKFSYTLVDPLTSLVGVFDRSMLEVFVNEGAHSATMLVFPDSPVGSMKVATGGLPEGTQVNLQVNGLESTWQSS | 5 ± 0.1 | 4751 ± 25 | 1.011e+06 ± 10000
3 | RdINV (Rhodotorula dairenensis; Q216L) (protein, full-length RdINV, 675 residues, S. cerevisiae MFalpha secretion signal in pIB4, secreted by Komagataella phaffii; highly N- and O-glycosylated, ~170 kDa; homodimer) APAASSLAGPVTTGVFSAVSAIPSFATNLSGQVASATSTVLSGSTASGSSATAAPSASASGASSMQSMASSLSGSAFSPSSMMPIASGNMTMPNMTSSASASSAASTATGVAGGAGSNSSSSCAPTSLPASATELPTTVPTGTVITGDYTGSYRPQVHYSPPKGFMNDPNGCHRDRNGTYHLYYQYNPLEYVAGNLHWGHATSDDLYHWTNQPIAIFPPNSTSQVFSGSAVLDPNNTSGFFPNTTDGVVAVYTLNTPTLQVQEVAYSTDGGYNFTPYENNPVLSVGSNQFRDPKVFWYEDHWVMAVAAANDFTIEIYTSPNLTSWTFASNFTHHGLLGLAYECPNLVQVPFQDDPSKSAWLMYISINPGAPLGGSVGQYFPGDFNGTHFVAYDSAARIADFAKDNYASQWFADTENGESISIAWASNWQYTQQVPTSAQAFRSAMSLPRRNYLTNITRLGWDLVSLPYDLSPVVGPSLLSSSEANSTADVDFTNVTSNAVWFSLNVTLPDAAIQNASLISADASINITFLPSTKCSSSSGSGSDSPAATLTYFYAGLTNGALALTRPAASSSWGAENPFFTDKFSYTLVDPLTSLVGVFDRSMLEVFVNEGAHSATMLVFPDSPVGSMKVATGGLPEGTQVNLQVNGLESTWQSS | 24 ± 1 | 2324 ± 13 | 98000 ± 3000
4 | RdINV (Rhodotorula dairenensis; Q216T) (protein, full-length RdINV, 675 residues, S. cerevisiae MFalpha secretion signal in pIB4, secreted by Komagataella phaffii; highly N- and O-glycosylated, ~170 kDa; homodimer) APAASSLAGPVTTGVFSAVSAIPSFATNLSGQVASATSTVLSGSTASGSSATAAPSASASGASSMQSMASSLSGSAFSPSSMMPIASGNMTMPNMTSSASASSAASTATGVAGGAGSNSSSSCAPTSLPASATELPTTVPTGTVITGDYTGSYRPQVHYSPPKGFMNDPNGCHRDRNGTYHLYYQYNPLEYVAGNTHWGHATSDDLYHWTNQPIAIFPPNSTSQVFSGSAVLDPNNTSGFFPNTTDGVVAVYTLNTPTLQVQEVAYSTDGGYNFTPYENNPVLSVGSNQFRDPKVFWYEDHWVMAVAAANDFTIEIYTSPNLTSWTFASNFTHHGLLGLAYECPNLVQVPFQDDPSKSAWLMYISINPGAPLGGSVGQYFPGDFNGTHFVAYDSAARIADFAKDNYASQWFADTENGESISIAWASNWQYTQQVPTSAQAFRSAMSLPRRNYLTNITRLGWDLVSLPYDLSPVVGPSLLSSSEANSTADVDFTNVTSNAVWFSLNVTLPDAAIQNASLISADASINITFLPSTKCSSSSGSGSDSPAATLTYFYAGLTNGALALTRPAASSSWGAENPFFTDKFSYTLVDPLTSLVGVFDRSMLEVFVNEGAHSATMLVFPDSPVGSMKVATGGLPEGTQVNLQVNGLESTWQSS | 13 ± 1 | 11500 ± 182 | 864000 ± 39000
5 | RdINV (Rhodotorula dairenensis; A360Q) (protein, full-length RdINV, 675 residues, S. cerevisiae MFalpha secretion signal in pIB4, secreted by Komagataella phaffii; highly N- and O-glycosylated, ~170 kDa; homodimer) APAASSLAGPVTTGVFSAVSAIPSFATNLSGQVASATSTVLSGSTASGSSATAAPSASASGASSMQSMASSLSGSAFSPSSMMPIASGNMTMPNMTSSASASSAASTATGVAGGAGSNSSSSCAPTSLPASATELPTTVPTGTVITGDYTGSYRPQVHYSPPKGFMNDPNGCHRDRNGTYHLYYQYNPLEYVAGNQHWGHATSDDLYHWTNQPIAIFPPNSTSQVFSGSAVLDPNNTSGFFPNTTDGVVAVYTLNTPTLQVQEVAYSTDGGYNFTPYENNPVLSVGSNQFRDPKVFWYEDHWVMAVAAANDFTIEIYTSPNLTSWTFASNFTHHGLLGLQYECPNLVQVPFQDDPSKSAWLMYISINPGAPLGGSVGQYFPGDFNGTHFVAYDSAARIADFAKDNYASQWFADTENGESISIAWASNWQYTQQVPTSAQAFRSAMSLPRRNYLTNITRLGWDLVSLPYDLSPVVGPSLLSSSEANSTADVDFTNVTSNAVWFSLNVTLPDAAIQNASLISADASINITFLPSTKCSSSSGSGSDSPAATLTYFYAGLTNGALALTRPAASSSWGAENPFFTDKFSYTLVDPLTSLVGVFDRSMLEVFVNEGAHSATMLVFPDSPVGSMKVATGGLPEGTQVNLQVNGLESTWQSS | 15 ± 0.2 | 3814 ± 16 | 251000 ± 21000
6 | RdINV (Rhodotorula dairenensis; N387T) (protein, full-length RdINV, 675 residues, S. cerevisiae MFalpha secretion signal in pIB4, secreted by Komagataella phaffii; highly N- and O-glycosylated, ~170 kDa; homodimer) APAASSLAGPVTTGVFSAVSAIPSFATNLSGQVASATSTVLSGSTASGSSATAAPSASASGASSMQSMASSLSGSAFSPSSMMPIASGNMTMPNMTSSASASSAASTATGVAGGAGSNSSSSCAPTSLPASATELPTTVPTGTVITGDYTGSYRPQVHYSPPKGFMNDPNGCHRDRNGTYHLYYQYNPLEYVAGNQHWGHATSDDLYHWTNQPIAIFPPNSTSQVFSGSAVLDPNNTSGFFPNTTDGVVAVYTLNTPTLQVQEVAYSTDGGYNFTPYENNPVLSVGSNQFRDPKVFWYEDHWVMAVAAANDFTIEIYTSPNLTSWTFASNFTHHGLLGLAYECPNLVQVPFQDDPSKSAWLMYISITPGAPLGGSVGQYFPGDFNGTHFVAYDSAARIADFAKDNYASQWFADTENGESISIAWASNWQYTQQVPTSAQAFRSAMSLPRRNYLTNITRLGWDLVSLPYDLSPVVGPSLLSSSEANSTADVDFTNVTSNAVWFSLNVTLPDAAIQNASLISADASINITFLPSTKCSSSSGSGSDSPAATLTYFYAGLTNGALALTRPAASSSWGAENPFFTDKFSYTLVDPLTSLVGVFDRSMLEVFVNEGAHSATMLVFPDSPVGSMKVATGGLPEGTQVNLQVNGLESTWQSS | 17 ± 0.8 | 583 ± 5 | 35000 ± 1000
7 | RdINV (Rhodotorula dairenensis; A360Q/N387T) (protein, full-length RdINV, 675 residues, S. cerevisiae MFalpha secretion signal in pIB4, secreted by Komagataella phaffii; highly N- and O-glycosylated, ~170 kDa; homodimer) APAASSLAGPVTTGVFSAVSAIPSFATNLSGQVASATSTVLSGSTASGSSATAAPSASASGASSMQSMASSLSGSAFSPSSMMPIASGNMTMPNMTSSASASSAASTATGVAGGAGSNSSSSCAPTSLPASATELPTTVPTGTVITGDYTGSYRPQVHYSPPKGFMNDPNGCHRDRNGTYHLYYQYNPLEYVAGNQHWGHATSDDLYHWTNQPIAIFPPNSTSQVFSGSAVLDPNNTSGFFPNTTDGVVAVYTLNTPTLQVQEVAYSTDGGYNFTPYENNPVLSVGSNQFRDPKVFWYEDHWVMAVAAANDFTIEIYTSPNLTSWTFASNFTHHGLLGLQYECPNLVQVPFQDDPSKSAWLMYISITPGAPLGGSVGQYFPGDFNGTHFVAYDSAARIADFAKDNYASQWFADTENGESISIAWASNWQYTQQVPTSAQAFRSAMSLPRRNYLTNITRLGWDLVSLPYDLSPVVGPSLLSSSEANSTADVDFTNVTSNAVWFSLNVTLPDAAIQNASLISADASINITFLPSTKCSSSSGSGSDSPAATLTYFYAGLTNGALALTRPAASSSWGAENPFFTDKFSYTLVDPLTSLVGVFDRSMLEVFVNEGAHSATMLVFPDSPVGSMKVATGGLPEGTQVNLQVNGLESTWQSS | 14 ± 0.6 | 486 ± 4 | 34000 ± 1000
8 | RdINV (Rhodotorula dairenensis; A213W) (protein, full-length RdINV, 675 residues, S. cerevisiae MFalpha secretion signal in pIB4, secreted by Komagataella phaffii; highly N- and O-glycosylated, ~170 kDa; homodimer) APAASSLAGPVTTGVFSAVSAIPSFATNLSGQVASATSTVLSGSTASGSSATAAPSASASGASSMQSMASSLSGSAFSPSSMMPIASGNMTMPNMTSSASASSAASTATGVAGGAGSNSSSSCAPTSLPASATELPTTVPTGTVITGDYTGSYRPQVHYSPPKGFMNDPNGCHRDRNGTYHLYYQYNPLEYVWGNQHWGHATSDDLYHWTNQPIAIFPPNSTSQVFSGSAVLDPNNTSGFFPNTTDGVVAVYTLNTPTLQVQEVAYSTDGGYNFTPYENNPVLSVGSNQFRDPKVFWYEDHWVMAVAAANDFTIEIYTSPNLTSWTFASNFTHHGLLGLAYECPNLVQVPFQDDPSKSAWLMYISINPGAPLGGSVGQYFPGDFNGTHFVAYDSAARIADFAKDNYASQWFADTENGESISIAWASNWQYTQQVPTSAQAFRSAMSLPRRNYLTNITRLGWDLVSLPYDLSPVVGPSLLSSSEANSTADVDFTNVTSNAVWFSLNVTLPDAAIQNASLISADASINITFLPSTKCSSSSGSGSDSPAATLTYFYAGLTNGALALTRPAASSSWGAENPFFTDKFSYTLVDPLTSLVGVFDRSMLEVFVNEGAHSATMLVFPDSPVGSMKVATGGLPEGTQVNLQVNGLESTWQSS | 47 ± 3 | 2720 ± 45 | 58000 ± 3000
